The values below come from publication PMC12125552.

For assay [1], the target named is DdMyo7 short heavy meromyosin forced-dimer GFP (shHMM-FD-GFP) (Dictyostelium | not stated). The experiment in a line: co-IP; as a2, but the resin washed in IP wash buffer + 2 mM CaCl2 (+Ca2+); immunoblot signal normalised for gel load and heavy chain abundance. In general terms: In western blotting, separated proteins are transferred to a membrane and probed.
For assay [2] the target is unchanged.
Assay [3] has as its target DdMyo7 long heavy meromyosin (lnHMM), FLAG-tagged (Dictyostelium). The experiment in a line: co-IP; lnHMM (FLAG) precipitated with anti-Flag beads from a MgATP-released, myosin-enriched cytoskeletal fraction of talA null cells; washed in Flag buffer (25 mM Hepes pH 7.4, 300 mM NaCl, 10 mM MgCl2 and 5 mM EGTA, or 2 mM CaCl2); eluted with Flag peptide; gel stained with Coomassie or Sypro Ruby, densitometry normalised to molecular weights; lower band identified by mass spectrometry.

DdMyo7 long heavy meromyosin (lnHMM), FLAG-tagged (Dictyostelium), sequence (Q9U1M8 686-725): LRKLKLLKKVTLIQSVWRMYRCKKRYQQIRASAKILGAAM

In the case of FLAG-CalB (natural protein), in assay [1], the reduction of immunoblot signal with Ca2+ was 75.1%.
The stoichiometry N is a count of units in the complex or per binding partner. For “Dictyostelium CaM-like protein CalB (natural protein)”, the velocity of shHMM-FD on F-actin (TIRF motility assay) with 100 μM free Ca2+, against 40.7 nm/s without Ca2+ in assay [2] amounted to 23.6 nm/s. In addition, the stoichiometry N in assay [3] stood at 2.01 CalB per HC.
